PMC7536395

T1: endogenous mouse GIPR (mouse (endogenous in primary mouse adipocytes and Neuro-2a cells)) (UniProt Q0P543)
T1 sequence: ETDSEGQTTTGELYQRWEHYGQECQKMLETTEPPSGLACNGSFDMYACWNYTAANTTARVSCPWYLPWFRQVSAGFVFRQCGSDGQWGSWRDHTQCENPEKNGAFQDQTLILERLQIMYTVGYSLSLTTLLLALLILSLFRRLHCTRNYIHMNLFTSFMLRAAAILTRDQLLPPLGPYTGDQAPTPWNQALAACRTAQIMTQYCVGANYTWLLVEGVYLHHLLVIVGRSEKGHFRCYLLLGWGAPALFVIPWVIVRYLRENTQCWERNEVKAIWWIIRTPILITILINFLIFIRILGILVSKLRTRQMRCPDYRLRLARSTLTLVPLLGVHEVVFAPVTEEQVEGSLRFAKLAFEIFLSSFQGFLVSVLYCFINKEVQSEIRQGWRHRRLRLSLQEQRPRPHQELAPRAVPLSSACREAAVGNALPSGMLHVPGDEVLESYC

T2: endogenous rat GIPR in INS1 832/13 cells (rat (endogenous in INS1 832/13)) (UniProt P43219)
T2 sequence: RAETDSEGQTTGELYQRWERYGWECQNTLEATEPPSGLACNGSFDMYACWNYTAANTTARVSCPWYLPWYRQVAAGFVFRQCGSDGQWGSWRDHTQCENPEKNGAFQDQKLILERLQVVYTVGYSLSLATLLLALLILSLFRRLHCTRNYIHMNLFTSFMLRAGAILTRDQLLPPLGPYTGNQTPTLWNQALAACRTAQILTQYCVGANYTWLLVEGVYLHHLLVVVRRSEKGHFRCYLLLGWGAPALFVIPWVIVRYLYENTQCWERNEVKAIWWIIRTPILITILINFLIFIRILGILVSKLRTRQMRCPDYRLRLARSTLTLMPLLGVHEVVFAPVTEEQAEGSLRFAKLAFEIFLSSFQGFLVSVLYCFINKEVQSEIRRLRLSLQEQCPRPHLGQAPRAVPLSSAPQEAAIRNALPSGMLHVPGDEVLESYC


Tests used:
[1] = target: T1, endogenous mouse GIPR (mouse (endogenous in primary mouse adipocytes and Neuro-2a cells))
[2] = target: T1, endogenous mouse GIPR (mouse (endogenous in primary mouse adipocytes and Neuro-2a cells)); remark: listed apart in the source
[3] = target: T2, endogenous rat GIPR in INS1 832/13 cells (rat (endogenous in INS1 832/13))

| EC50 of cAMP production in mouse primary adipocytes differentiated in vitro [1] [nM] | EC50 of glycerol release (lipolysis) from primary mouse adipocytes differentiated in vitro [1] [nM] | EC50 of cAMP production in mouse Neuro-2a neuroblastoma cells [2] [nM] | EC50 of cAMP production in rat INS1 832/13 cells [3] [nM] | Binder |
| --- | --- | --- | --- | --- |
| 3.8 | 13 | 6.35 |  | YAEGTFISDYSIAMDKIRQQDFVNWLLAQRGKKSDWKHNITQ (ligand) [mouse GIP] |
|  |  |  | 0.99 | YAEGTFISDYSIAMDKIRQQDFVNWLLAQKGKKNDWKHNLTQ (ligand) [rat GIP] |
